B1: Transcription factor HY5 (Arabidopsis thaliana (Mouse-ear cress)), O24646 (parent)
chain: MQEQATSSLAASSLPSSSERSSSSAPHLEIKEGIESDEEIRRVPEFGGEAVGKETSGRESGSATGQERTQATVGESQRKRGRTPAEKENKRLKRLLRNRVSAQQARERKKAYLSELENRVKDLENKNSELEERLSTLQNENQMLRHILKNTTGNKRGGGGGSNADASL
partner: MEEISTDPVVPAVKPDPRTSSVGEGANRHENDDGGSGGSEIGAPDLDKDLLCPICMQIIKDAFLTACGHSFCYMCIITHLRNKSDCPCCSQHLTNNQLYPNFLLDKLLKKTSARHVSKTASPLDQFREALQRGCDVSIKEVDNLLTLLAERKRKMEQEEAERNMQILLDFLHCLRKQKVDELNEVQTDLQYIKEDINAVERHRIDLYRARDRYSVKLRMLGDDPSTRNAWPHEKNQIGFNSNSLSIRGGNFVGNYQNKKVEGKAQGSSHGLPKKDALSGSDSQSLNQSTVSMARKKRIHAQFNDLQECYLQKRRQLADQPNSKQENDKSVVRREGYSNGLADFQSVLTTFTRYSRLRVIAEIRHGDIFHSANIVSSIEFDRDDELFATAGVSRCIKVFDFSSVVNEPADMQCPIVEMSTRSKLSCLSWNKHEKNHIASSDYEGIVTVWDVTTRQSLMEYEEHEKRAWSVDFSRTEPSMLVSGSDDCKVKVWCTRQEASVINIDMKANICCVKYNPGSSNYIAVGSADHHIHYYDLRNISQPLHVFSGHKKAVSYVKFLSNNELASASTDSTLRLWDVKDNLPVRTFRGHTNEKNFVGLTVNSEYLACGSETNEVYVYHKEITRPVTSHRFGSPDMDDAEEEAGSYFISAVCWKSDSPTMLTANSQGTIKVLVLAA
B2: E3 ubiquitin-protein ligase COP1 (Arabidopsis thaliana (Mouse-ear cress)), P43254 (parent)
chain: B1 partner
partner: B1 chain
B3: E3 ubiquitin-protein ligase COP1 (Arabidopsis thaliana (Mouse-ear cress)), P43254 (parent)
chain: B1 partner
partner: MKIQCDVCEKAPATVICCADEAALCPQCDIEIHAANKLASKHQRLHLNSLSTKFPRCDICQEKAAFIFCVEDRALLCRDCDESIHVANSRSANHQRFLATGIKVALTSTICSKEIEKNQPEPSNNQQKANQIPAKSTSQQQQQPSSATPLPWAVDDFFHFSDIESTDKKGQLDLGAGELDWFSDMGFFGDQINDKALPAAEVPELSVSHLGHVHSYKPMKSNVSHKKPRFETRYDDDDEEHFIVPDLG
B4: E3 ubiquitin-protein ligase COP1 (Arabidopsis thaliana (Mouse-ear cress)), P43254 (parent)
chain: B1 partner
partner: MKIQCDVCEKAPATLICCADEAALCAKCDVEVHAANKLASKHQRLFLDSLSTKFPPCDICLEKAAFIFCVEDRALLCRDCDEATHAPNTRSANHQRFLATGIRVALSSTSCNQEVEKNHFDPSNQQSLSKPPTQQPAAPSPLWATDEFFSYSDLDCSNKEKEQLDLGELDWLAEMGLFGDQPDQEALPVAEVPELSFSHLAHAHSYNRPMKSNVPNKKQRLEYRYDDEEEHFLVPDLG
B5: B-box zinc finger protein 25 (Arabidopsis thaliana (Mouse-ear cress)), Q9SID1 (parent)
chain: B4 partner
partner: B1 partner

Variants of: B1
Details: with cop1_arath COP1, P43254

Variant | effect of a mutation on the interaction
MQEQATSSLAASSLPSSSERSSSSAPHLEIKEGIESDEEIRRAAEFGGEAVGKETSGRESGSATGQERTQATVGESQRKRGRTPAEKENKRLKRLLRNRVSAQQARERKKAYLSELENRVKDLENKNSELEERLSTLQNENQMLRHILKNTTGNKRGGGGGSNADASL [V43A;P44A] | decreasing interaction

Variants of: B2
Details: with hy5_arath HY5, O24646

Variant | effect of a mutation on the interaction
K422E | increasing interaction
W467A | decreasing interaction
G524E | decreasing interaction
K550E | decreasing interaction
E592R | increasing interaction

Variants of: B3
Details: with BBX24, Q96288-1

Variant | effect of a mutation on the interaction
K422E | decreasing interaction
R465E | decreasing interaction
W467A | decreasing interaction
G524E | decreasing interaction
K550E | decreasing interaction
E592R | increasing interaction

Variants of: B4
Details: with bbx25_arath BBX25, Q9SID1

Variant | effect of a mutation on the interaction
K422E | decreasing interaction
R465E | decreasing interaction
W467A | decreasing interaction
G524E | decreasing interaction
K550E | decreasing interaction
E592R | increasing interaction

Variants of: B5
Details: with cop1_arath COP1, P43254

Variant | effect of a mutation on the interaction
MKIQCDVCEKAPATLICCADEAALCAKCDVEVHAANKLASKHQRLFLDSLSTKFPPCDICLEKAAFIFCVEDRALLCRDCDEATHAPNTRSANHQRFLATGIRVALSSTSCNQEVEKNHFDPSNQQSLSKPPTQQPAAPSPLWATDEFFSYSDLDCSNKEKEQLDLGELDWLAEMGLFGDQPDQEALPVAEVPELSFSHLAHAHSYNRPMKSNVPNKKQRLEYRYDDEEEHFLAADLG [V234A;P235A] | decreasing interaction
